One protein from paper PMC6915384, “Kinetic Parameter Estimation and Mathematical Modelling of Lipase Catalysed Biodiesel Synthesis in a Microreactor” (Micromachines, 2019) can be followed below.

Substrate in this data set: CO
As to the kind of experiment: initial rates of FAME formation in PTFE microreactor, GC; non-linear regression. It counts as biochemical, Thermomyces lanuginosus. To be noted: transesterification, co-substrate sunflower oil (fatty acids constant; printed 1,488.15 mg/L), 40 °C, 0.01 mol/L potassium phosphate pH 7.4, double-substrate Michaelis-Menten, methanol range printed a.

B1: lipase from Thermomyces lanuginosus (Lipolase 100L; Lipolase L100; TlL) (Thermomyces lanuginosus) (protein)
chain: EVSQDLFNQFNLFAQYSAAAYCGKNNDAPAGTNITCTGNACPEVEKADATFLYSFEDSGVGDVTGFLALDNTNKLIVLSFRGSRSIENWIGNLNFDLKEINDICSGCRGHDGFTSSWRSVADTLRQKVEDAVREHPDYRVVFTGHSLGGALATVAGADLRGNGYDIDVFSYGAPRVGNRAFAEFLTVQTGGTLYRITHTNDIVPRLPPREFGYSHSSPEYWIKSGTLVPVTRNDIVKIEGIDATGGNNQPNIPDIPAHLWYFGLIGTCL
notes: commercial liquid preparation Lipolase 100L (Sigma-Aldrich), free enzyme in phosphate buffer; mass 33,400 g/mol used for calculations (cited)
The term Km denotes the concentration of substrate that gives half-maximal velocity. B1: the Km is 7.56 ± 2.77 mg/mL.
